Ends that are not written are not given here.

The record followed here is patent US7238668B1, “Inhibition of lymphocyte adherence with CS-1-peptides and fragments thereof” (Fred Hutchinson Cancer Research Center, priority 1989, dated 2007).

The target in assay [1] is T1, integrin receptor α4β1 (human, UniProt P13612 34-1032; P05556 21-798). Briefly: adhesion of 51Cr-Molt 4 cells to plasma fibronectin-coated plastic with hybridoma supernatant; SP2 control 100%.
Assay [2] deals with T1, integrin receptor α4β1. Briefly: adhesion of T lymphocytes to CS-1 (rabbit IgG conjugate)-coated plastic with P4C2; IgG control 44339.
Assay [3] has as its target T1, integrin receptor α4β1. Briefly: adhesion of T lymphocytes to 38 kDa-coated plastic with P4C2; IgG control 22680.
Assay [4] deals with T1, integrin receptor α4β1. Description: adhesion of 51Cr-HT1080 cells to plasma fibronectin-coated plastic with hybridoma supernatant; SP2 control 100%.
Assay [5] has as its target T1, integrin receptor α4β1. Briefly: adhesion of T lymphocytes to 80 kDa-coated plastic with P4C2; IgG control 8580.
Assay [6] deals with T1, integrin receptor α4β1. Briefly: adhesion of 51Cr-Jurkat cells to plasma fibronectin-coated plastic with hybridoma supernatant; SP2 control 100%.
The target of assay [7] is T1, integrin receptor α4β1. Briefly: cell-based or functional assay.
Assay [8] has as its target T1, integrin receptor α4β1. Description: adhesion of T lymphocytes to CS-2 (rabbit IgG conjugate)-coated plastic with P4C2; IgG control […].
The target of assay [9] is T1, integrin receptor α4β1. Briefly: adhesion of 51Cr-PBL to plasma fibronectin-coated plastic with hybridoma supernatant; SP2 control 100%.
The target of assay [10] is T2, integrin α5β1 (human, UniProt P08648 42-1049; P05556 21-798). Description: adhesion of 51Cr-Molt 4 cells to plasma fibronectin-coated plastic with hybridoma supernatant; SP2 control 100%.
In assay [11] the target is T2, integrin α5β1. Description: adhesion of T lymphocytes to 80 kDa-coated plastic with P1D6; IgG control 8580.
The target in assay [12] is T2, integrin α5β1. Briefly: adhesion of 51Cr-HT1080 cells to plasma fibronectin-coated plastic with hybridoma supernatant; SP2 control 100%.
For assay [13], the target named is T2, integrin α5β1. Briefly: adhesion of T lymphocytes to CS-1 (rabbit IgG conjugate)-coated plastic with P1D6; IgG control 44339.
The target in assay [14] is T2, integrin α5β1. Briefly: cell-based or functional assay.
Assay [15] deals with T2, integrin α5β1. Briefly: adhesion of T lymphocytes to 38 kDa-coated plastic with P1D6; IgG control 22680.
Assay [16] deals with T2, integrin α5β1. Description: adhesion of 51Cr-Jurkat cells to plasma fibronectin-coated plastic with hybridoma supernatant; SP2 control 100%.
The target of assay [17] is T2, integrin α5β1. Description: adhesion of T lymphocytes to CS-2 (rabbit IgG conjugate)-coated plastic with P1D6; IgG control […].
In assay [18] the target is T2, integrin α5β1. Briefly: adhesion of 51Cr-PBL to plasma fibronectin-coated plastic with hybridoma supernatant; SP2 control 100%.
Assay [19] deals with Jurkat (T) lymphocyte adhesion to HUVE monolayers. Description: Endothelial cell adhesion assay, Jurkat cells on HUVE monolayers. To be noted: for Adhesion (cpm) +IL-1β: IL-1β activated HUVE. It is filed as cell-based, human. Here is the method:
(§1) HUVEs were incubated with IL-1 β (1 ng/ml) or in some experiments with TNF α (10 ng/ml) for 6–24 hours. At the end of this incubation the HUVE monolayers were washed and used in the adhesion assay.
(§2) Human umbilical vein endothelial cells (HUVEs) were cultured in 48 well plates as described (supra). To measure adherence of lymphocytes to HUVE monolayer cultures, lymphocytes were labeled with Na2 ^51CrO4 (50 μCi/ml) for 2–4 hours), washed, and then 10^5 lymphocytes were incubated with HUVE monolayers in the presence or absence of inhibitory antibodies or CS-1 derived peptides. The lymphocytes were allowed to adhere for 30 minutes at 37°. Non-adherent cells were subsequently removed by washing with PBS, and the adherent cells were dissolved in SDS/NaOH. Bound ^51Cr-cpm were quantitated in a gamma counter. In some experiments, endothelial cells were activated prior to the adhesion assay by incubating with IL-1 β (1 ng/ml) or […] (10 ng/ml) for 6–24 hours in defined CS-100 media (Cell Systems, Seattle, Wash.).

Another assay concerns Jurkat cells. Briefly: Peptide inhibition of Jurkat cell adhesion to plasma fibronectin (50% inhibition point). In kind it is cell-based, human. To be noted: read-out: Molar Concentration (mM) required for 50% inhibition of Jurkat cell adhesion to plasma fibronectin; fibronectin 5 ug/ml; 30 min. Here is the method:
For peptide inhibition studies, ^51Cr-labeled test cells were pre-incubated with CS-1 derived peptides at various concentrations for 15 min at room temperature. The test cells were then allowed to attach to fibronectin-coated surfaces in the presence of exogenous test peptides for 30–60 min. The assay then proceeded as described above.
For these experiments in Table XIII ^51Cr-labeled Jurkat cells (10^5/well) were incubated in the presence of the varying concentrations (starting at 2 mg/ml) of the indicated peptides for 15 min. The Jurkat cells were then allowed to adhere to plasma fibronectin-coated surfaces (5 ug/ml) in the presence of the peptides for 30 min. Adhesion to fibronectin was graphically depicted as cpm bound to the fibronectin surface (Y axis), plotted as a function of molar peptide concentration (X axis).

In assay [20] the test system is LAD (B) lymphocyte adhesion to HUVE monolayers. Briefly: Endothelial cell adhesion assay, LAD cells on HUVE monolayers. It is filed as cell-based, human. To be noted: for Adhesion (cpm) +IL-1β: IL-1β activated HUVE. Here is the method:
as §1, §2

Assay [21] relates to Ramos (B) lymphocyte adhesion to HUVE monolayers. Description: Endothelial cell adhesion assay, Ramos cells on HUVE monolayers. It is filed as cell-based, human. The note with it: for Adhesion (cpm) +IL-1β: IL-1β activated HUVE. Here is the method:
as §1, §2

Assay [22] deals with T1, integrin receptor α4β1. Description: adhesion of 51Cr-Jurkat cells to surfaces coated with graded peptide-rsa conjugate; 50% of total input cpm, read from plot. Here is the method: Therefore, peptide-conjugates were prepared using rabbit serum albumin (rsa) as a carrier and the conjugates were tested for their ability to support cell adhesion. […] The adhesion experiments presented in Table XIV were conducted as follows:
(No adhesion=no measurable adhesion above negative controls.)

The target of assay [23] is T1, integrin receptor α4β1. Briefly: adhesion of Jurkat and Molt 4 cells to coated fragments.

T2 sequence (P08648 42-1049, chain 1 of 2): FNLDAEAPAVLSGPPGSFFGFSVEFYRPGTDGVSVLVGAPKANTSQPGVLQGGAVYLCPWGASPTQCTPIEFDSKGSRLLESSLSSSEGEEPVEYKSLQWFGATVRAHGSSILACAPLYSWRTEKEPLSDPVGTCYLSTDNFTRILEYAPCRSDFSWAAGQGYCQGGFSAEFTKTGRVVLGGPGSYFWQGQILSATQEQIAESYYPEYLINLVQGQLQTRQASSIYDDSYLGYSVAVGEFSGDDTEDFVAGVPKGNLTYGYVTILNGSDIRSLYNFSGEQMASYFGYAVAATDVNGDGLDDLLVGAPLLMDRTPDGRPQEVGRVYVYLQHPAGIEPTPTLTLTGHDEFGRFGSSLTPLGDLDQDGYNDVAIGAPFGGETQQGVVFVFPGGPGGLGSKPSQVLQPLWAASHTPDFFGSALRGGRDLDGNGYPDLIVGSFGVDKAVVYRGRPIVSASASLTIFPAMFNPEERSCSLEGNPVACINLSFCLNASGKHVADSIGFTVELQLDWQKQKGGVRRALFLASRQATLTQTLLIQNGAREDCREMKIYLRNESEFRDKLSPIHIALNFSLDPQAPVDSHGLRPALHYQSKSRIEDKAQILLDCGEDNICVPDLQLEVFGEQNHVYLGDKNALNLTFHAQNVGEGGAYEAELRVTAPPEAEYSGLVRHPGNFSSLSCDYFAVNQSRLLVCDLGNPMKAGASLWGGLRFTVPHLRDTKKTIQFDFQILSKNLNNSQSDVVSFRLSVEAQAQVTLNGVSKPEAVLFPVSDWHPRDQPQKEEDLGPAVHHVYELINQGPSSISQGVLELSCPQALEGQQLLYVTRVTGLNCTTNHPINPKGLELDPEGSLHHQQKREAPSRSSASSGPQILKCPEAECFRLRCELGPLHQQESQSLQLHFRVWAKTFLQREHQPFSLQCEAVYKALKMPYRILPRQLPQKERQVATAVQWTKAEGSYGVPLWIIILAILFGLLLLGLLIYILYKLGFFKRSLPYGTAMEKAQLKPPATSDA
T2 sequence (P05556 21-798, chain 2 of 2): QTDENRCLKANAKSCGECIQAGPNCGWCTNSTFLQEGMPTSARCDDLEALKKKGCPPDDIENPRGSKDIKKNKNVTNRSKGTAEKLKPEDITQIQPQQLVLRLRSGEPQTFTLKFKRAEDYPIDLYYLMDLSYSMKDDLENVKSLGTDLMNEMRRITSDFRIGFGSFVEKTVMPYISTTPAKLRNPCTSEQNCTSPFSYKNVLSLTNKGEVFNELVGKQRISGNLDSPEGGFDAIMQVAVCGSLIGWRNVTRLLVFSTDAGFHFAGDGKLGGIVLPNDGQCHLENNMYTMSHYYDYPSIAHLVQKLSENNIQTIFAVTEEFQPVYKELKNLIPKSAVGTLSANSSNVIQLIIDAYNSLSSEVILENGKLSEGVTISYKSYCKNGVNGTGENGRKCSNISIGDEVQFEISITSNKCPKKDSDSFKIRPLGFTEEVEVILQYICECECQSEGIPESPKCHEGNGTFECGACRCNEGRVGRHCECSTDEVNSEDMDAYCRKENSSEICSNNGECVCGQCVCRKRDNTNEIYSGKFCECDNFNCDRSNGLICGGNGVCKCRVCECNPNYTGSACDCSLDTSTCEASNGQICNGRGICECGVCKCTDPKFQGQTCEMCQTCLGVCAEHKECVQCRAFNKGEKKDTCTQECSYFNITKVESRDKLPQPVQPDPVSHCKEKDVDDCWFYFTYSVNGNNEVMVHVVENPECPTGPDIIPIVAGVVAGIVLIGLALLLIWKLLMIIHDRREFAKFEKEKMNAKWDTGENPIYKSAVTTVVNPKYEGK
T1 sequence (P13612 34-1032, form in doubt, chain 1 of 2): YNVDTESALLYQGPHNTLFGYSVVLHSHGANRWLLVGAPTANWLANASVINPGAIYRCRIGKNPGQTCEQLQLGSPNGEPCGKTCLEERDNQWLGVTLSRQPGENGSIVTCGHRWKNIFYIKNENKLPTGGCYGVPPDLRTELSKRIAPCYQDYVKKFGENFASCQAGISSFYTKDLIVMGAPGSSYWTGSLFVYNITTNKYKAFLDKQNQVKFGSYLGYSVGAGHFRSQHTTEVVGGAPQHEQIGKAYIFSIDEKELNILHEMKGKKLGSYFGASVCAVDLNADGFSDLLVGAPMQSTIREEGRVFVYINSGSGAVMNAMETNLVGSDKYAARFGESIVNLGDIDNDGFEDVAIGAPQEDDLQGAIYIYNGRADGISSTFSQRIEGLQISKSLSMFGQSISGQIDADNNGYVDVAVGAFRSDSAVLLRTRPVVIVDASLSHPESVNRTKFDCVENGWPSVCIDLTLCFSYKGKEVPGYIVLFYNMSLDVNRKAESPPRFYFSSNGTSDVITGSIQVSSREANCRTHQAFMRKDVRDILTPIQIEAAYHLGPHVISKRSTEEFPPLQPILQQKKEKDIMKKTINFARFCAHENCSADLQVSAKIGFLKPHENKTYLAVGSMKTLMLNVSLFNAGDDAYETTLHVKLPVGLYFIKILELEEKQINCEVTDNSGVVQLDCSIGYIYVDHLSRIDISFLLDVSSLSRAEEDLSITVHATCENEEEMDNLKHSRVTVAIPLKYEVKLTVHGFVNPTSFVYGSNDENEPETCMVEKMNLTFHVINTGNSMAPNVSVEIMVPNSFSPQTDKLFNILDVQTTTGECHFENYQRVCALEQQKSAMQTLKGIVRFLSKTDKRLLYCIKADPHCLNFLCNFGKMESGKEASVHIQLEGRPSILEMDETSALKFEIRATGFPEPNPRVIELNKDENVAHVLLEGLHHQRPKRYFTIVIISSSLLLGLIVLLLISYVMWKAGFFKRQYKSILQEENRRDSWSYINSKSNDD
T1 sequence (P05556 21-798, form in doubt, chain 2 of 2): as the sequence (P05556 21-798, chain 2 of 2) above

As to monoclonal antibody P4C2, the Fibronectin Adhesion (% Control) stood at 8 % Control with integrin receptor α4β1 [1], 93 % Control with integrin receptor α4β1 [4], 12 % Control with integrin receptor α4β1 [6] and 10 % Control in the assay with integrin receptor α4β1 [9]. For the same molecule, the T lymphocyte adhesion (unit not given) came out at 841 with integrin receptor α4β1 [2], 114 in the assay with integrin receptor α4β1 [3], 7150 with integrin receptor α4β1 [5] and 535 with integrin receptor α4β1 [8]. The molecule further came in with an Adhesion (cpm), Jurkat (T) on HUVE monolayers, +IL-1β; SP2 control 372159 with integrin receptor α4β1 [7] of 137000 cpm. Besides, the Adhesion (cpm), Jurkat (T) on HUVE monolayers, Basal; SP2 control 83924 with integrin receptor α4β1 [7] stood at 23100 cpm. Also, the Adhesion (cpm), LAD (B) on HUVE monolayers, +IL-1β; SP2 control 104672 with integrin receptor α4β1 [7] turned out to be 38100 cpm. This molecule had an Adhesion (cpm), LAD (B) on HUVE monolayers, Basal; SP2 control 19542 in the assay with integrin receptor α4β1 [7] of 6460 cpm. In the assay with integrin receptor α4β1 [7], this molecule registered an Adhesion (cpm), Ramos (B) on HUVE monolayers, +IL-1β; SP2 control 12157 of 3690 cpm. In the assay with integrin receptor α4β1 [7], this molecule returned an Adhesion (cpm), Ramos (B) on HUVE monolayers, Basal; SP2 control 972 of 456 cpm.
In the case of monoclonal antibody P1D6, the Fibronectin Adhesion (% Control) was 18 % Control in the assay with integrin α5β1 [10], 5 % Control with integrin α5β1 [12], 22 % Control with integrin α5β1 [16] and 43 % Control with integrin α5β1 [18]. Moreover, the T lymphocyte adhesion (unit not given) with integrin α5β1 [11] stood at 202; with integrin α5β1 [13], 42900; in the assay with integrin α5β1 [15], 24900; in the assay with integrin α5β1 [17] it was 435. In the assay with integrin α5β1 [14], the Adhesion (cpm), Jurkat (T) on HUVE monolayers, +IL-1β; SP2 control 372159 was 418000 cpm. The molecule also had an Adhesion (cpm), Jurkat (T) on HUVE monolayers, Basal; SP2 control 83924 with integrin α5β1 [14] of 84000 cpm. In the assay with integrin α5β1 [14], this molecule displayed an Adhesion (cpm), LAD (B) on HUVE monolayers, +IL-1β; SP2 control 104672 of 114000 cpm. Besides, the Adhesion (cpm), LAD (B) on HUVE monolayers, Basal; SP2 control 19542 in the assay with integrin α5β1 [14] was 15700 cpm. The molecule further registered an Adhesion (cpm), Ramos (B) on HUVE monolayers, +IL-1β; SP2 control 12157 in the assay with integrin α5β1 [14] of 11200 cpm. Besides, the Adhesion (cpm), Ramos (B) on HUVE monolayers, Basal; SP2 control 972 with integrin α5β1 [14] came to 808 cpm.
Consider VPST [Peptide 350], for which the “Adhesion (cpm) +IL-1β” value in assay [19] (Table XI, no peptide 314848) is recorded as 322208 cpm; in assay [19] (peptides, Table X), 127544 cpm; in [20] (Table XI, no peptide 71408), 98860 cpm; in [20] (peptides, Table X) it was 42728 cpm; in [21] (Table XI, no peptide 12936), 15320 cpm; in assay [21] (peptides, Table X), 4568 cpm. Further, the “Adhesion (cpm) Basal” value in assay [19] (basal HUVE, Table XI, no peptide 161092) is reported as 203716 cpm; in [20] (basal HUVE, Table XI, no peptide 44860), 38176 cpm; in assay [21] (basal HUVE, Table XI, no peptide 2724), 4168 cpm. Further, the IC50 in the assay with Jurkat cells was greater than 2.5 mM.

B1: rsa-CS-1 (peptide)
peptide: DELPQLVTLPHPNLHGPEILDVPST
modifications: also: conjugated to SMCC-derivatized rabbit serum albumin
notes: also called CS-1-rsa; CS-1 (RSA conjugate)
B1: in the assay with integrin receptor α4β1 [22], the “Molar Concentration required for 50% adhesion of Jurkat cells” value turned out to be 115 nM.
The same measure, in the same setting: the figure for LHGPEILDVPST (also: conjugated to SMCC-derivatized rabbit serum albumin, also called B12-rsa conjugate) [rsa-B12] is 492 nM; for EILDV (also: conjugated to SMCC-derivatized rabbit serum albumin, also called EILDV-RSA) [rsa-EILDV] it is 1130 nM.

B2: 58 kDa tryptic fragment of plasma fibronectin (ligand, human, UniProt P02751-10 1589-2125, looked up)
chain: TAGPDQTEMTIEGLQPTVEYVVSVYAQNPSGESQPLVQTAVTTIPAPTDLKFTQVTPTSLSAQWTPPNVQLTGYRVRVTPKEKTGPMKEINLAPDSSSVVVSGLMVATKYEVSVYALKDTLTSRPAQGVVTTLENVSPPRRARVTDATETTITISWRTKTETITGFQVDAVPANGQTPIQRTIKPDVRSYTITGLQPGTDYKIYLYTLNDNARSSPVVIDASTAIDAPSNLRFLATTPNSLLVSWQPPRARITGYIIKYEKPGSPPREVVPRPRPGVTEATITGLEPGTEYTIYVIALKNNQKSEPLIGRKKTGQEALSQTTISWAPFQDTSEYIISCHPVGTDEEPLQFRVPGTSTSATLTGLTRGATYNVIVEALKDQQRHKVREEVVTVGNSVNEGLNQPTDDSCFDPYTVSHYAVGDEWERMSESGFKLLCQCLGFGSGHFRCDSSRWCHDNGVNYKIGEKWDRQGENGQMMSCTCLGNGKGEFKCDPHEATCYDDGKTYHVGEQWQKEYLGAICSCTCFGGQRGWRCDNCRR
notes: domain: Hep II and Fib II (58 kDa tryptic fragment)
As for B2, in the assay with integrin receptor α4β1 [23], the “maximum cell attachment relative to the 38 kDa fragment” value was found to be 30%.
